Data on one molecule can be found in patent US20150315289A1 (published 2015).

The test addresses MUC1 (human, UniProt P15941 24-1255, limits assumed). The test is described as follows: immunofluorescence co-localisation on human carcinoma cell lines; MUC5AC siRNA knockdown.

B1: humanized PAM4 (hPAM4) IgG (antibody, V domains shown)
VH: QVQLQQSGAEVKKPGASVKVSCEASGYTFPSYVLHWVKQAPGQGLEWIGYINPYNDGTQYNEKFKGKATLTRDTSINTAYMELSRLRSDDTAVYYCARGFGGSYGFAYWGQGTLVTVSS
VL: DIQLTQSPSSLSASVGDRVTMTCSASSSVSSSYLYWYQQKPGKAPKLWIYSTSNLASGVPARFSGSGSGTDFTLTISSLQPEDSASYFCHQWNRYPYTFGGGTRLEIKR
notes: humanized IgG1 kappa; used HRP-conjugated in some ELISAs and blots; also called clivatuzumab; HRP-hPAM4
On to B1, for which the binding result was “no binding”.
